Results on 14 molecules are retold here after PMC314469, “Protein Interaction Networks by Proteome Peptide Scanning” (PLoS Biology, 2004).

To fix the notation:
B1: YOR116C 826-839 (peptide)
chain: GFQDRSLPHFPKNS
B2: YPR151C 52-65 (peptide)
chain: FYDFRSLPKVPTTQ
B3: YDL051W 238-251 (peptide)
chain: GHKKKNLPKFPKNK
B4: YPR117W 1311-1324 (peptide)
chain: GDEERFLPNRPHYE
B5: YJR122W 473-486 (peptide)
chain: GENIKITPQKPFWF
B6: YPL277C 154-167 (peptide)
chain: GDHPKGPPPPPPPP
B7: YBR214W 193-206 (peptide)
chain: GEMVKLTPKNPFYK
B8: YMR259C 335-348 (peptide)
chain: FSTKKSKPIRPFVF
B9: YGL195W 1152-1165 (peptide)
chain: FYKEKAKPLEPILD
B10: YER114C 436-449 (peptide)
chain: FVSPRRAPKPPSYP
B11: YNL231C 5-18 (peptide)
chain: FSKKKEAPEDPKNL
B12: YOR389W 154-167 (peptide)
chain: GDHPKGPPPPPPPD
B13: YNL094W 196-209 (peptide)
chain: GFLSKKVPNTPVVV
B14: YML104C 41-54 (peptide)
chain: FVFFKSLPDLPKPQ

The first test has as its target T1, Boi2 SH3 (BOI2_YEAST), P39969.
T1 chain: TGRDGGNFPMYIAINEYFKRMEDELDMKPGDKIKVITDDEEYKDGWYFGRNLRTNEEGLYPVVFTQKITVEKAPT
The test is described as follows: SPOT array.
B1 had a normalised SPOT signal, Boehringer light units (BLU); mean over the file's lines of this peptide of 18.7.
Same read-out and setting: the value for B2 was 74.9; that for B3 was 23.1; that for B4 was 34.4.
On the same count and under the same terms, the value for B5 was 35.5.
On the same count and under the same terms, the value for B6 was 0.3.
Molecule B7 gave a normalised SPOT signal, Boehringer light units (BLU); mean over the file's lines of this peptide of 23.6.
Still for that read-out and setting: the value for B8 was 30.8; that for B9 was 27.8; that for B10 was 13.1.
Same read-out and setting: to B11 belongs 18.3.
Same read-out and setting: the value for B12 was 1.7; that for B13 was 5.3; that for B14 was 8.6.

A further test addresses T2, Yhr016c SH3 (YSC84_YEAST), P32793.
T2 chain: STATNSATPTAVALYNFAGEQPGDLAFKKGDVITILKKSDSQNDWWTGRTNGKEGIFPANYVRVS
The experiment in a line: SPOT array.
As for B1, the normalised SPOT signal, Boehringer light units (BLU); mean over the file's lines of this peptide was 49.7.
Same read-out and setting: the value for B2 was 496; that for B3 was 47.5.
B4 had a normalised SPOT signal, Boehringer light units (BLU); mean over the file's lines of this peptide of 653.
The same measure, in the same setting: to B5 belongs 33; to B6, 23.3.
On the same count and under the same terms, to B7 belongs 44.4; to B8, 66.2; to B9, 57.
The same measure, in the same setting: to B10 belongs 70.9.
As for B11, the normalised SPOT signal, Boehringer light units (BLU); mean over the file's lines of this peptide came to 21.7.
With B12, the normalised SPOT signal, Boehringer light units (BLU); mean over the file's lines of this peptide amounted to 3.6.
The same measure, in the same setting: to B13 belongs 24.7.
On the same count and under the same terms, to B14 belongs 80.2.

The target of the next test is Sho1 SH3 (SHO1_YEAST), P40073. The test is described as follows: SPOT array.
Chain of Sho1 SH3 (SHO1_YEAST), P40073 (P40073 295-366): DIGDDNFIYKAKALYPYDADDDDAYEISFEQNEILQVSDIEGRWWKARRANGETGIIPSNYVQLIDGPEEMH
In turn, B1 came in with a normalised SPOT signal, Boehringer light units (BLU); mean over the file's lines of this peptide of 5160.
B2 yielded a normalised SPOT signal, Boehringer light units (BLU); mean over the file's lines of this peptide of 30200.
Molecule B3 displayed a normalised SPOT signal, Boehringer light units (BLU); mean over the file's lines of this peptide of 4690.
On the same count and under the same terms, the value for B4 was 37.9.
In the case of B5, the normalised SPOT signal, Boehringer light units (BLU); mean over the file's lines of this peptide stood at 46.
As for B6, the normalised SPOT signal, Boehringer light units (BLU); mean over the file's lines of this peptide came out at 6.3.
Still for that read-out and setting: to B7 belongs 60.2.
On the same count and under the same terms, to B8 belongs 182; to B9, 62.7; to B10, 96.2.
On the same count and under the same terms, the value for B11 was 42.3; that for B12 was 28.1; that for B13 was 47.5.
Consider B14, for which the normalised SPOT signal, Boehringer light units (BLU); mean over the file's lines of this peptide was determined as 35800.

The target in the next test is T3, Boi1 SH3 (BOI1_YEAST), P38041.
T3 chain: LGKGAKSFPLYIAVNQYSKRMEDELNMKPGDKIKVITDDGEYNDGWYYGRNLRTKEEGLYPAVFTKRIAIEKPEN
The test is described as follows: SPOT array.
B1 showed a normalised SPOT signal, Boehringer light units (BLU); mean over the file's lines of this peptide of 88.7.
The same measure, in the same setting: the value for B2 was 4350; that for B3 was 517.
On the same count and under the same terms, the value for B4 was 54.3; that for B5 was 82.4.
The same measure, in the same setting: to B6 belongs 70; to B7, 152.
Regarding B8, the normalised SPOT signal, Boehringer light units (BLU); mean over the file's lines of this peptide stood at 267.
Same read-out and setting: to B9 belongs 80.5; to B10, 4960.
On the same count and under the same terms, to B11 belongs 56.7.
On the same count and under the same terms, the value for B12 was 30.8; that for B13 was 426; that for B14 was 129.

Another test has as its target T4, Rvs167 SH3 (RV167_YEAST), P39743.
T4 chain: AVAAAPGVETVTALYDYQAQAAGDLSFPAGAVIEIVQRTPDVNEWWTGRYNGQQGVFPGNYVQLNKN
The test is described as follows: SPOT array.
B1: the normalised SPOT signal, Boehringer light units (BLU); mean over the file's lines of this peptide was 240.
Still for that read-out and setting: to B2 belongs 263; to B3, 31.7.
On the same count and under the same terms, to B4 belongs 10.7; to B5, 74.1; to B6, 10.9.
On the same count and under the same terms, the value for B7 was 73.6.
Molecule B8 had a normalised SPOT signal, Boehringer light units (BLU); mean over the file's lines of this peptide of 228.
Same read-out and setting: to B9 belongs 25.4; to B10, 42.1.
Same read-out and setting: the value for B11 was 66.9; that for B12 was 54.8.
As for B13, the normalised SPOT signal, Boehringer light units (BLU); mean over the file's lines of this peptide was 100.
On the same count and under the same terms, the value for B14 was 179.

Another test concerns the target T5, Yfr024 SH3 (LSB3_YEAST), P43603.
T5 chain: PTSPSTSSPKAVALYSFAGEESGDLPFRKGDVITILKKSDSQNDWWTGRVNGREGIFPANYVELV
The test is described as follows: SPOT array.
Take B1: the normalised SPOT signal, Boehringer light units (BLU); mean over the file's lines of this peptide came to 180.
Still for that read-out and setting: to B2 belongs 3030; to B3, 594.
B4 had a normalised SPOT signal, Boehringer light units (BLU); mean over the file's lines of this peptide of 1300.
B5 had a normalised SPOT signal, Boehringer light units (BLU); mean over the file's lines of this peptide of 29.7.
Same read-out and setting: to B6 belongs 11.5; to B7, 208.
On to B8, for which the normalised SPOT signal, Boehringer light units (BLU); mean over the file's lines of this peptide is 864.
As for B9, the normalised SPOT signal, Boehringer light units (BLU); mean over the file's lines of this peptide was 0.
Same read-out and setting: to B10 belongs 826; to B11, 13.4; to B12, 0.
The molecule B13 had a normalised SPOT signal, Boehringer light units (BLU); mean over the file's lines of this peptide of 81.6.
Still for that read-out and setting: the value for B14 was 448.

A further test has as its target T6, Myo5 SH3 (MYO5_YEAST), Q04439.
T6 chain: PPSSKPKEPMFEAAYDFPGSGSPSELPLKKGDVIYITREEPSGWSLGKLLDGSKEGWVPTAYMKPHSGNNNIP
The test is described as follows: SPOT array.
On to B1, for which the normalised SPOT signal, Boehringer light units (BLU); mean over the file's lines of this peptide was 178.
On to B2, for which the normalised SPOT signal, Boehringer light units (BLU); mean over the file's lines of this peptide was 337.
The same measure, in the same setting: the value for B3 was 789.
The same measure, in the same setting: to B4 belongs 126; to B5, 115; to B6, 20200.
The molecule B7 showed a normalised SPOT signal, Boehringer light units (BLU); mean over the file's lines of this peptide of 408.
Take B8: the normalised SPOT signal, Boehringer light units (BLU); mean over the file's lines of this peptide was determined as 378.
On the same count and under the same terms, to B9 belongs 87.7; to B10, 1580; to B11, 148.
Consider B12, for which the normalised SPOT signal, Boehringer light units (BLU); mean over the file's lines of this peptide is 40100.
Turning to B13, the normalised SPOT signal, Boehringer light units (BLU); mean over the file's lines of this peptide turned out to be 71.3.
The same measure, in the same setting: to B14 belongs 860.
